Experimental findings from article doi:10.1101/2020.12.10.419556 are described below.

What all share (experiment): loss of red fluorescence after photoconversion
The target of assay [1] is PhoCl2f empty barrel fragment (residues 1-231).
Assay [2] addresses PhoCl1.5f-MVL empty barrel fragment (residues 1-231).
In assay [3] the target is PhoCl1 empty barrel fragment (residues 1-231), from pBAD/HisB constructs.

Take “PhoCl C-terminal peptide fragment (residues 232-242), from pBAD/HisB PhoCl variants”: the dissociation t1/2 is 1.27 min in assay [1] and 9.5 min in assay [3]. The substance also returned a red fluorescence remaining after dissociation in assay [2] of 60%.
